# Positions count from the first letter of the chain named.
# B1: p30-077 IgG (antibody, V domains shown)
# VH: EVQLVESGGGLVQPGGSLRLSCAASGFTIGDWGIHWVRQAPGKGLEWVAGIWPFGGFTFYADSVKGRFTISADTSKNTAYLQMNSLRAEDTAVYYCARGSFYWDYWGQGTLVTVSS
# VL: DIQMTQSPSSLSASVGDRVTITCRASQDVNNNVAWYQQKPGKAPKLLISSPTYLYSGVPSRFSGSGSGTDFTLTISSLQPEDFATYYCQQWYDWPITFGQGTKVEIKR
# B2: p30-052 IgG (antibody, V domains shown)
# VH: EVQLVESGGGLVQPGGSLRLSCAASGFTIDSGFIHWVRQAPGKGLEWVAGIGPFWGFTFYADSVKGRFTISADTSKNTAYLQMNSLRAEDTAVYYCARYGSSSYGFDYWGQGTLVTVSS
# VL: B1 VL with N30D, T52G, Y53F, W91Y, Y92F, D93N, W94F
# B3: p30-090 IgG (antibody, V domains shown)
# VH: EVQLVESGGGLVQPGGSLRLSCAASGFTIDGGGIHWVRQAPGKGLEWVAGIWPSWGYTYYADSVKGRFTISADTSKNTAYLQMNSLRAEDTAVYYCARGFYWYDYWGQGTLVTVSS
# VL: B1 VL with N32D, S49F, S50Y, T52G, Y53G, W91S, Y92W, D93N, W94Y, I96L
# B4: p30-091 IgG (antibody, V domains shown)
# VH: EVQLVESGGGLVQPGGSLRLSCAASGFTISDYWIHWVRQAPGKGLEWVAYINPHYGLTDYADSVKGRFTISADTSKNTAYLQMNSLRAEDTAVYYCARGWLLDYWGQGTLVTVSS
# VL: DIQMTQSPSSLSASVGDRVTITCKSNQNLLDSGDQGTYLNWYQQKPGKAPKLLISDVSNLYSGVPSRFSGSGSGTDFTLTISSLQPEDFATYYCYQATSFPFTFGQGTKVEIKR
# Biological target: recombinant p30 protein of ASFV (African swine fever virus (ASFV), UniProt P0C9Z3 1-181)
# Test: ELISA, IgG titrated on immobilized recombinant p30
row,Binder,EC50
1,B1,2.6 ng/mL
2,B2,2 ng/mL
3,B3,0.9 ng/mL
4,B4,2.6 ng/mL

# From patent US20250369970A1 (ACADEMIA SINICA, published 2025)
